Where a chain is given by its changes, count along the chain named.

Sequences and labels used below:
B1: R7-9070: shuffled maize HPPD, Round 7, variant 9070 (SEQ ID NO:2); backbone for saturation mutagenesis (protein)
chain: MGPTPTATAAGAAVAAASAAEQAAFRLVGHRNFVRFNPRSDRFQTLAFHHVELWCADAASAAGRFSFALGVPLAARSDLSTGNSAHASLLLRSGSLSLLFTAPYAHGADAATAALPSFSAAAARRFAADHGLAVRAVALRVADAEDAFRASVAAGARPAFGPVDLGRGFRLAEVELYGDVVLRYVSYPDGAAGEPFLPGFEGVASPGAADYGLSRFDHIVGNVPELAPAAAYMAGFTGFHEFAEFTTEDVGTTESGLNSMALANNSENVLLPLNEPVHGTKRRSQIQTFLDHHGGPGVQHIALASDDVLRTLREMRARSAMGGFEFLPPPLSDYYDGVRRCAGDVLTEAQINECQELGVMVDRDDQGVLLQIFTKPVGDRPTFFLEIIQRIGCMEKDEKGQEYQKGGCGGFGKGNFGQLFKSIEDYEKSLEAKQAAAAATAQGS
modifications: Zea mays variant form created by artificial means.
notes: backbone for saturation mutagenesis
B2: P056028-B-02 (protein)
chain: B1 chain with P206S, E356K, Q366E, K428R, A438V
modifications: Zea mays variant form created by artificial means.
B3: P056028-A-03 (protein)
chain: B1 chain with A191G, Y211L, Q366E, A432R, Q434R
modifications: Zea mays variant form created by artificial means.
B4: P056028-A-01 (protein)
chain: B1 chain with Q366E, Q434R
modifications: Zea mays variant form created by artificial means.
B5: P056028-D-03 (protein)
chain: B1 chain with L182M, S214N, Q366E
modifications: Zea mays variant form created by artificial means.
B6: P056028-G-01R (protein)
chain: B1 chain with Y211L, S214N, R340K, Q366E, M394R, A432K, Q434R
modifications: Zea mays variant form created by artificial means.
B7: P056028-G-01 (protein)
chain: B1 chain with Y211L, S214N, R340K, Q366E, A432K, Q434R
modifications: Zea mays variant form created by artificial means.
B8: P056028-B-09 (protein)
chain: B1 chain with G337D, Q366E, M394V, Q434R
modifications: Zea mays variant form created by artificial means.
B9: 9070Q366E (protein)
chain: B1 chain with Q366E
modifications: Zea mays variant form created by artificial means.
B10: Z. mays wt: maize wild-type HPPD, SEQ ID NO:1 (glycine for proline at position 2) (protein)
chain: MGPTPTAAAAGAAVAAASAAEQAAFRLVGHRNFVRFNPRSDRFHTLAFHHVELWCADAASAAGRFSFGLGAPLAARSDLSTGNSAHASLLLRSGSLSFLFTAPYAHGADAATAALPSFSAAAARRFAADHGLAVRAVALRVADAEDAFRASVAAGARPAFGPVDLGRGFRLAEVELYGDVVLRYVSYPDGAAGEPFLPGFEGVASPGAADYGLSRFDHIVGNVPELAPAAAYFAGFTGFHEFAEFTTEDVGTAESGLNSMVLANNSENVLLPLNEPVHGTKRRSQIQTFLDHHGGPGVQHMALASDDVLRTLREMQARSAMGGFEFMAPPTSDYYDGVRRRAGDVLTEAQIKECQELGVLVDRDDQGVLLQIFTKPVGDRPTLFLEIIQRIGCMEKDEKGQEYQKGGCGGFGKGNFSQLFKSIEDYEKSLEAKQAAAAAAAQGS
modifications: Zea mays

The first data set relates to 4-hydroxyphenylpyruvate dioxygenase (HPPD). In words: Estimate of kcat from initial rate at saturating hydroxyphenylpyruvate without inhibitor (ON rate ratio assay). It is filed as biochemical, Z. mays. The settings on record: Megatable 3; shuffled variants. In short, it runs like this: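 kcat was estimated from the initial reaction rate with known enzyme level (60 or 120 nM HPPD). Hydroxyphenylpyruvate was at a saturating 100 μM, with no inhibitor present.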
For the molecule B1, the kcat was 0.667 s⁻¹.
Take B2: the catalytic constant (kcat) was 0.47 s⁻¹.
Consider B3, for which the kcat was 0.4 s⁻¹.
For the molecule B4, the kcat is 0.652 s⁻¹.
On to B5, for which the kcat is 0.327 s⁻¹.
Take B6: the kcat is 1.18 s⁻¹.
For the molecule B7, the kcat was 0.537 s⁻¹.
Take B8: the kcat was 0.575 s⁻¹.
On the same count and under the same terms, for B9 the value was 0.335 s⁻¹.

The data set is the same for the next values; noted with them: Table 5; single substitutions in Round 7 variant 9070 (SEQ ID NO:2); estimate from initial rate at saturating hydroxyphenylpyruvate without inhibitor.
With B1, the kcat is 0.57 s⁻¹.
For B10, the kcat is 3.5 s⁻¹.

The same data set, now with this note: Table 7; combinatorial variants.
As for B1, the kcat is 0.667 s⁻¹.
As for B2, the catalytic constant (kcat) is 0.47 s⁻¹.
With B3, the kcat is 0.4 s⁻¹.
For B4, the kcat is 0.652 s⁻¹.
With B5, the kcat was 0.327 s⁻¹.
Regarding B6, the kcat was 1.18 s⁻¹.
Still for that read-out and setting: as for B7, the figure is 0.537 s⁻¹; as for B8, 0.575 s⁻¹.
On to B9, for which the kcat was 0.335 s⁻¹.

For the next data set the test system is unchanged. In words: OFF rate ratio: release of inhibitor from pre-formed enzyme-inhibitor complex. The settings on record: Table 5; tembotrione. The class given is biochemical, Z. mays. In short, it runs like this: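 Inhibitor release from pre-formed complex (enzyme 7.2 μM, inhibitor 8 μM, 1 h RT) tracked as accelerating HPPD activity at 320 nm over 12 min, coupled via 50 nM HGD with 100 μM HPP at pH 7. OFF rate ratio: steady-state velocity relative to uninhibited initial velocity.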
Consider B1, for which the “OFF ratio (parameters with tembotrione)” value amounted to 0.21.
On the same count and under the same terms, as for B10, the figure is 0.03.

Staying with this data set, now noted: Table 7; tembotrione; combinatorial variants.
On to B1, for which the OFF rate ratio came to 0.116.
In the case of B2, the OFF rate ratio is given as 0.469.
With B3, the OFF rate ratio came out at 0.243.
As to B4, the OFF rate ratio is 0.249.
In the case of B5, the OFF rate ratio was determined as 0.453.
Regarding B6, the OFF rate ratio is 0.280.
Take B7: the OFF rate ratio is given as 0.320.
Regarding B8, the OFF rate ratio is 0.187.
Consider B9, for which the OFF rate ratio is listed as 0.273.

Still in this data set, the particulars now being: inhibitor diketonitrile form of isoxaflutole (DKN).
In the case of B1, the “Insensitivity, isoxaflutole (DKN), Rate ratio OFF” value was determined as 0.20.
Still for that read-out and setting: for B2 the value was 0.43; for B3, 0.43.
For B4, the “Insensitivity, isoxaflutole (DKN), Rate ratio OFF” value was 0.44.
Regarding B5, the “Insensitivity, isoxaflutole (DKN), Rate ratio OFF” value turned out to be 0.40.
Same read-out and setting: for B6 the value was 0.38; for B7, 0.42.
The same measure, in the same setting: for B8 the value was 0.33; for B9, 0.39.
On to B10, for which the “Insensitivity, isoxaflutole (DKN), Rate ratio OFF” value is reported as 0.01.

The data set is the same for the next values; noted with them: inhibitor mesotrione.
Take B1: the “Insensitivity, mesotrione, Rate ratio OFF” value is recorded as 0.89.
As for B2, the “Insensitivity, mesotrione, Rate ratio OFF” value was determined as 1.00.
For B3, the “Insensitivity, mesotrione, Rate ratio OFF” value stood at 1.00.
On to B4, for which the “Insensitivity, mesotrione, Rate ratio OFF” value stood at 1.00.
Still for that read-out and setting: as for B5, the figure is 1.00.
Take B6: the “Insensitivity, mesotrione, Rate ratio OFF” value was found to be 1.00.
As to B7, the “Insensitivity, mesotrione, Rate ratio OFF” value is 1.00.
B8: the “Insensitivity, mesotrione, Rate ratio OFF” value came to 1.00.
On the same count and under the same terms, for B9 the value was 1.00; for B10, 0.31.

The data set is the same for the next values; noted with them: inhibitor sulcotrione.
Consider B1, for which the “Insensitivity, sulcotrione, Rate ratio OFF” value is recorded as 0.71.
Turning to B2, the “Insensitivity, sulcotrione, Rate ratio OFF” value was found to be 1.00.
The same measure, in the same setting: for B3 the value was 0.93.
In the case of B4, the “Insensitivity, sulcotrione, Rate ratio OFF” value worked out at 1.22.
On the same count and under the same terms, as for B5, the figure is 1.11; as for B6, 1.11.
As for B7, the “Insensitivity, sulcotrione, Rate ratio OFF” value was 1.14.
For the molecule B8, the “Insensitivity, sulcotrione, Rate ratio OFF” value stood at 0.88.
For the molecule B9, the “Insensitivity, sulcotrione, Rate ratio OFF” value is 1.13.
In the case of B10, the “Insensitivity, sulcotrione, Rate ratio OFF” value was 0.28.

The same data set, now with this note: inhibitor tembotrione.
Consider B1, for which the “Insensitivity, tembotrione, Rate ratio OFF” value amounted to 0.22.
For B2, the “Insensitivity, tembotrione, Rate ratio OFF” value is 0.47.
On the same count and under the same terms, for B3 the value was 0.40; for B4, 0.43.
B5: the “Insensitivity, tembotrione, Rate ratio OFF” value is given as 0.45.
Consider B6, for which the “Insensitivity, tembotrione, Rate ratio OFF” value was found to be 0.28.
Same read-out and setting: for B7 the value was 0.47; for B8, 0.35.
Turning to B9, the “Insensitivity, tembotrione, Rate ratio OFF” value was 0.33.
In the case of B10, the “Insensitivity, tembotrione, Rate ratio OFF” value was 0.04.

Still in this data set, the particulars now being: inhibitor topramezone.
Turning to B1, the “Insensitivity, topramezone, Rate ratio OFF” value came to 0.25.
B2: the “Insensitivity, topramezone, Rate ratio OFF” value is given as 0.53.
For the molecule B3, the “Insensitivity, topramezone, Rate ratio OFF” value is reported as 0.47.
Take B4: the “Insensitivity, topramezone, Rate ratio OFF” value is given as 0.60.
For the molecule B5, the “Insensitivity, topramezone, Rate ratio OFF” value is given as 0.58.
B6: the “Insensitivity, topramezone, Rate ratio OFF” value is on record as 0.53.
Turning to B7, the “Insensitivity, topramezone, Rate ratio OFF” value was found to be 0.57.
As to B8, the “Insensitivity, topramezone, Rate ratio OFF” value amounted to 0.48.
On to B9, for which the “Insensitivity, topramezone, Rate ratio OFF” value amounted to 0.57.
Regarding B10, the “Insensitivity, topramezone, Rate ratio OFF” value turned out to be 0.045.

Still in this data set, the particulars now being: mesotrione.
For B1, the OFF rate ratio was found to be 0.83.
For the molecule B10, the OFF rate ratio is listed as 0.31.

Still in this data set, the particulars now being: mesotrione; enzyme 240 nM.
On to B10, for which the “time span to reach the steady state (dissociation from inhibitor)” value is 280 s.

For another data set the test system is unchanged. The data set is described as follows: HPPD activity coupled assay with HGD; substrate saturation kinetic parameters (kcat, KM). It is filed as biochemical, Z. mays. As to conditions: Table 2; E. coli purified proteins. In short, it runs like this: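 Coupled continuous assay: His-tagged HPPD (5 to 240 nM, E. coli-expressed, Ni-NTA-purified) with 50 nM P. aeruginosa HGD in 25 mM Hepes pH 7, 2 mM ascorbate, 10 μM FeSO4; maleylacetoacetate followed at 320 nm. KM and Vmax from Lineweaver-Burke fits over 3.33–100 μM HPP.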
As for B1, the Km was 2.9 µM and the kcat is 1.48 s⁻¹.
As for B10, the Km was found to be 6.4 µM and the kcat was 3.65 s⁻¹.

The same data set, now with this note: Table 6.
For the molecule B1, the Km came out at 2.35 µM.
With B10, the Km was 6.4 µM.

Still in this data set, the particulars now being: Table 6; single substitutions in SEQ ID NO:2.
As for B1, the kcat was 0.918 s⁻¹.
On to B10, for which the kcat was 3.65 s⁻¹.

Still in this data set, the particulars now being: substrate saturation kinetic analysis.
Turning to B1, the Km was 2.91 µM and the kcat was determined as 1.48 s⁻¹.
For the molecule B2, the Km turned out to be 3 µM and the kcat worked out at 0.978 s⁻¹.
For the molecule B3, the Km amounted to 2.98 µM and the kcat was determined as 1.05 s⁻¹.
Turning to B4, the Michaelis constant (Km) came out at 2.49 µM and the kcat stood at 1.21 s⁻¹.
Take B5: the Km came out at 2.08 µM and the kcat stood at 0.737 s⁻¹.
As for B6, the Km was 2.02 µM and the kcat was found to be 1.18 s⁻¹.
The corresponding values for B7 are 2.06 µM and 0.69 s⁻¹.
For B8, the Km turned out to be 3 µM and the kcat came to 1.55 s⁻¹.
On to B9, for which the Km worked out at 1.57 µM and the kcat was 0.513 s⁻¹.
The corresponding values for B10 are 6.41 µM and 3.65 s⁻¹.

The same data set, now with this note: text b374.
For the molecule B10, the kcat entry was “about 220 min^−1”.

A word on the kcat: it is the maximal rate divided by the concentration of active sites. The term Km denotes the substrate concentration at which the rate is half of its maximum.

Values taken from US11015206B2, “Compositions and methods comprising sequences having hydroxyphenylpyruvate dioxygenase (HPPD) activity” (PIONEER HI-BRED INTERNATIONAL, INC., priority 2014, dated 2021).
